Data on one substance can be found in publication doi:10.1101/2022.08.26.505460.

This assay deals with FN3^WDR5-cpYFP fusion protein.

Regarding “WD40-repeat protein 5 (WDR5) (from UniProt P61964 31-334) (natural protein)”, the Kd (usually the constant that tells how readily two partners part at equilibrium) turned out to be 727 nM.
